In the supplement of paper PMC10567573:

B1: ZNF449 (parent)
chain: YRHQRLHTGERPYECTVCKKRFTR

Variants of: B1
Test: protein stability index of a GFP-peptide fusion (GPS, HEK-293T) (PSI 1-6); higher = more stable
Details: c terminus: a fixed tail appended
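Also: lentivirally expressed fusions sorted by FACS into six bins by GFP to DsRed ratio, PSI derived from sequencing read proportions per bin multiplied by bin number.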

Protein stability index: each site, then its substitutions
R21: P 2.46 | L 2.02 | K 2.15 | F 2.1 | V 2 | M 1.89 | N 1.93 | I 1.9 | C 2.01 | Q 1.98 | H 2.56 | E 2.39 | Y 2.49 | T 1.92 | A 2.06 | S 1.65 | G 1.96 | D 2.46 | W 2.18
R11: M 1.79 | Y 2.76 | T 2.1 | H 2.43 | K 2.59 | E 2.08 | P 2.33 | Q 2.48 | S 2.43 | W 2.2 | N 2.1 | F 2.68 | L 2.09 | I 2.22 | G 2.71 | C 3.21 | V 1.85 | D 2.67 | A 2.26
V17: D 3.07 | W 2.28 | R 2.55 | C 2.65 | A 2.48 | H 2.64 | S 2.5 | P 3.17 | N 2.87 | M 2.21 | Q 2.47 | T 2.85 | K 3.69 | I 2.25 | Y 2.2 | E 2.37 | L 2.56 | G 2.63 | F 2.37
G9: R 2.45 | Y 2.1 | L 2.21 | N 2.54 | W 1.91 | C 3.86 | D 2.35 | S 2.33 | T 2.23 | V 2.07 | M 2.25 | F 2.01 | I 2.4 | Q 2.1 | H 2.81 | E 2.31 | A 2.26 | P 2.04 | K 2.42
L6: K 2.34 | H 2.73 | N 2.63 | P 2.4 | R 2.7 | I 2.37 | G 2.61 | T 2.51 | Q 2.38 | S 2.38 | M 2.37 | F 2.17 | W 2.38 | V 2.17 | Y 2.74
P12: N 2.71 | M 2.32 | I 2.1 | H 2.26 | R 2.98 | E 2.38 | A 2.54 | S 2.34 | L 2.22 | T 2.88 | C 2.37 | V 2.87 | F 2.19 | G 2.21 | D 2.83 | W 2.44 | Q 2.2 | Y 2.62 | K 2.62
T23: D 2.21 | A 2.93 | I 2.76 | N 2.28 | H 2.78 | K 2.54 | R 2.85 | G 2.41 | L 2.71 | C 2.7 | E 2.67 | P 2.45 | M 2.85 | Q 2.16 | F 2.62
T8: H 2.7 | S 2.71 | M 2.83 | F 2.31 | P 2.52 | G 2.38 | N 2.56 | E 2.24 | Y 2.22 | V 2.29 | I 2.41 | L 1.97 | K 2.19 | Q 2.59 | C 2.4 | W 2.39 | R 2.87 | A 2.32 | D 2.27
Y13: L 2.08 | W 2.44 | I 2.09 | N 2.04 | F 2.86 | E 2.63 | H 2.69 | Q 2.67 | T 2.51 | M 2.69 | A 2.43 | V 2.21 | K 2.25 | R 2.32 | S 2.08 | D 2.11 | P 2.35 | G 2.55 | C 3.74
E14: Q 2.54 | G 2.42 | W 2.59 | C 2.57 | M 2.58 | Y 2.39 | P 2.93 | V 2.84 | D 2.23 | A 2.5 | S 2.69 | N 2.7 | R 2.6 | T 2.44 | F 2.11 | I 2.77 | L 2.38 | H 2.52 | K 2.97
E10: R 2.81 | F 2.35 | T 2.48 | S 2.62 | I 2.32 | H 2.88 | D 2.28 | L 2.13 | Q 2.54 | C 2.57 | W 2.34 | P 2.58 | A 2.38 | G 2.24 | V 2.4 | M 1.91 | N 2.6 | Y 3.09 | K 2.15
C18: Q 3.27 | Y 2.96 | E 3.48 | D 3.24 | T 3.6 | H 3.48 | P 3.45 | V 3.48 | N 3.43 | K 3.77 | I 3.15 | R 3.65 | S 3.38 | W 2.21 | M 2.56 | A 3.39 | G 3.37 | L 2.6 | F 2.38
C15: F 3.02 | W 3.07 | T 2.88 | I 2.55 | H 3.33 | P 3.4 | E 3.35 | D 3.51 | N 3.44 | Y 3.07 | A 3.02 | R 3.53 | K 3.42 | L 3.11 | S 3.02 | V 2.85 | M 2.98 | G 3.7 | Q 3.91
H7: Y 1.61 | V 2.18 | M 1.97 | I 2.16 | P 1.84 | C 2.65 | G 2.14 | A 2.17 | L 2.15 | F 1.46 | E 2.09 | Q 2.53 | W 3.01 | D 1.92 | R 2.24 | N 2.64 | T 2.35 | S 2.05 | K 2.75
T16: D 2.52 | W 2.03 | K 2.78 | I 2.34 | E 2.25 | R 2.51 | A 2.12 | S 2.39 | Y 2.75 | V 2.07 | H 2.24 | N 2.46 | C 2.09 | L 2.08 | F 2.14 | P 2.22 | Q 2.27 | M 1.98 | G 2.33
K19: F 2.33 | E 2.01 | C 2.12 | M 2.12 | I 2.58 | T 2.77 | S 1.74 | Y 1.95 | V 2.3 | A 2.68 | W 2.07 | N 2.19 | G 2.15 | R 2.34 | H 1.55 | D 1.96 | L 2.2 | Q 2.57 | P 2.69
K20: A 1.95 | D 1.89 | V 2.3 | T 2.03 | S 2.08 | F 2.15 | N 2.1 | H 2.17 | E 2.1 | L 1.73 | Y 2.46 | W 1.61 | R 1.9 | I 2.26 | C 2.2 | P 2.69 | Q 2.29 | G 2.36 | M 2.25
F22: D 2.94 | Y 2.84 | L 2.87 | T 2.41 | R 3.19 | W 2.3 | C 3.46 | E 3.23 | G 2.27 | H 3.21 | K 2.79 | N 3.09 | I 2.76 | V 2.52 | M 2.48 | P 2.98 | Q 2.66 | A 2.93 | S 3.06
